Substrate in this series: NCCCCc1ccccc1
The series is described as follows: Activity of human MAOB.

The text below walks through data of ChEMBL document CHEMBL1151754, “Structural and mechanistic studies of mofegiline inhibition of recombinant human monoamine oxidase B” (J Med Chem, 2008).

B1: Amine oxidase [flavin-containing] B (Homo sapiens) (protein)
chain: MSNKCDVVVVGGGISGMAAAKLLHDSGLNVVVLEARDRVGGRTYTLRNQKVKYVDLGGSYVGPTQNRILRLAKELGLETYKVNEVERLIHHVKGKSYPFRGPFPPVWNPITYLDHNNFWRTMDDMGREIPSDAPWKAPLAEEWDNMTMKELLDKLCWTESAKQLATLFVNLCVTAETHEVSALWFLWYVKQCGGTTRIISTTNGGQERKFVGGSGQVSERIMDLLGDRVKLERPVIYIDQTRENVLVETLNHEMYEAKYVISAIPPTLGMKIHFNPPLPMMRNQMITRVPLGSVIKCIVYYKEPFWRKKDYCGTMIIDGEEAPVAYTLDDTKPEGNYAAIMGFILAHKARKLARLTKEERLKKLCELYAKVLGSLEALEPVHYEEKNWCEEQYSGGCYTTYFPPGILTQYGRVLRQPVDRIYFAGTETATHWSGYMEGAVEAGERAAREILHAMGKIPEDEIWQSEPESVDVPAQPITTTFLERHLPSVPGLLRLIGLTTIFSATALGFLAHKRGLLVRV
In general, kcat refers to the maximal rate divided by the concentration of active sites. Take B1: the turnover number (kcat) worked out at 1.82 s⁻¹.
